{
  "source": "patent US6884616",
  "key": {"[1]": {"biological_target": "Recombinant human Factor IX immunoprecipitated from supernatants of GPIIb-FIX(WT.I1)-transfected HEL cells (UniProt P00740)"}, "[2]": {"biological_target": "Mononine (purified Factor IX) (UniProt P00740)"}},
  "data": [
    {"substance": "Factor XIa (Enzyme Research Lab., Swansea, UK)", "values": [
      {"measurement": "FIX cleavage after incubation with FXIa (immunoblot of immunoprecipitated FIX, enzyme/substrate 1/40)", "setting": "[1]", "result": "activation of the immunoprecipitated FIX from HEL cells resulted in the appearance of two bands corresponding to the heavy chain (29 kDa) and the light chain (19 kDa)"},
      {"measurement": "FIX cleavage after incubation with FXIa (rate of activation and protein profile)", "setting": "[2]", "result": "The rate of activation and the protein profile from HEL supernatants was similar to the results obtained with Mononine"}
    ]}
  ]
}
